For this assay, the target named is gramicidin A (Bacillus brevis). Description: single-channel electrophysiology.

The results in this text go back to PMC5599369.

A value given as a limit tells only on which side of the number the result lay.

gramicidin A (peptide) showed a channel (dimer) lifetime of less than 3 ms.
